Data: IntAct's records for PubMed 18976727

B1: Prickle-like protein 1 (Homo sapiens), Q96MT3 (parent)
chain: MPLEMEPKMSKLAFGCQRSSTSDDDSGCALEEYAWVPPGLRPEQIQLYFACLPEEKVPYVNSPGEKHRIKQLLYQLPPHDNEVRYCQSLSEEEKKELQVFSAQRKKEALGRGTIKLLSRAVMHAVCEQCGLKINGGEVAVFASRAGPGVCWHPSCFVCFTCNELLVDLIYFYQDGKIHCGRHHAELLKPRCSACDEIIFADECTEAEGRHWHMKHFCCLECETVLGGQRYIMKDGRPFCCGCFESLYAEYCETCGEHIGVDHAQMTYDGQHWHATEACFSCAQCKASLLGCPFLPKQGQIYCSKTCSLGEDVHASDSSDSAFQSARSRDSRRSVRMGKSSRSADQCRQSLLLSPALNYKFPGLSGNADDTLSRKLDDLSLSRQGTSFASEEFWKGRVEQETPEDPEEWADHEDYMTQLLLKFGDKSLFQPQPNEMDIRASEHWISDNMVKSKTELKQNNQSLASKKYQSDMYWAQSQDGLGDSAYGSHPGPASSRRLQELELDHGASGYNHDETQWYEDSLECLSDLKPEQSVRDSMDSLALSNITGASVDGENKPRPSLYSLQNFEEMETEDCEKMSNMGTLNSSMLHRSAESLKSLSSELCPEKILPEEKPVHLPVLRRSKSQSRPQQVKFSDDVIDNGNYDIEIRQPPMSERTRRRVYNFEERGSRSHHHRRRRSRKSRSDNALNLVTERKYSPKDRLRLYTPDNYEKFIQNKSAREIQAYIQNADLYGQYAHATSDYGLQNPGMNRFLGLYGEDDDSWCSSSSSSSDSEEEGYFLGQPIPQPRPQRFAYYTDDLSSPPSALPTPQFGQRTTKSKKKKGHKGKNCIIS
partner: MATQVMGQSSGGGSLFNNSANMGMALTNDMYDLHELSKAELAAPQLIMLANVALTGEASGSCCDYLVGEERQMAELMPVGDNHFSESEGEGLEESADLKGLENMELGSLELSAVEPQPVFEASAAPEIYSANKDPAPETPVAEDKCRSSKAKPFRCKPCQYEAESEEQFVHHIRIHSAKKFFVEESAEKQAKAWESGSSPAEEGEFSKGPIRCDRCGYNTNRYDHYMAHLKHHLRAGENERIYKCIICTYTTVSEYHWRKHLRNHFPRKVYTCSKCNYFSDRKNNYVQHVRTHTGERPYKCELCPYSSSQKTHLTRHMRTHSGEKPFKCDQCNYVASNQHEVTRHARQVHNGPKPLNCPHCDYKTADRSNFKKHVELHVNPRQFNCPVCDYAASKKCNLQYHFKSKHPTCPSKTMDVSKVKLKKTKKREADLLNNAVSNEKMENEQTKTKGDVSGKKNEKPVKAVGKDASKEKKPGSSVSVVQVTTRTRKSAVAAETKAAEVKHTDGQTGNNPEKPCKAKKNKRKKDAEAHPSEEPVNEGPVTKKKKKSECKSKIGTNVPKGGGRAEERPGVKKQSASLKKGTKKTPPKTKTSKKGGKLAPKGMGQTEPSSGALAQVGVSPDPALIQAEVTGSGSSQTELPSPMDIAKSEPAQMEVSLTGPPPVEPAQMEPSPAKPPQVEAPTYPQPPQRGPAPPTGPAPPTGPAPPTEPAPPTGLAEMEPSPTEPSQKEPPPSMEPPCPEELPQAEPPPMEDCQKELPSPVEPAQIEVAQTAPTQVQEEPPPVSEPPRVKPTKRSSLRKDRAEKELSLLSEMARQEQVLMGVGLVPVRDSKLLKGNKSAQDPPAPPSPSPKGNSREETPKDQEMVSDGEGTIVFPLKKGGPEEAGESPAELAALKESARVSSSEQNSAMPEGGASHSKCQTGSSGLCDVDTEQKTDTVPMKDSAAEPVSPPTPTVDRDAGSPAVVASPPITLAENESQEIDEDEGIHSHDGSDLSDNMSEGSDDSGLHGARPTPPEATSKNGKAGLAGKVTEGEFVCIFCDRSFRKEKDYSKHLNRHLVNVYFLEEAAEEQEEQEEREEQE

Variants of: B1
Conditions: with rest_mouse Rest

Variant | effect of a mutation on the interaction
R104Q | decreasing interaction
